Measured values taken from patent US20230287372.

Assays:
Assay in all cases: cell_activity
[1] = test system: T1, BEC10 (Artificial (engineered chimeric Cms1-like CRISPR nuclease)); settings: no-spacer negative control; 30 C
T1 sequence: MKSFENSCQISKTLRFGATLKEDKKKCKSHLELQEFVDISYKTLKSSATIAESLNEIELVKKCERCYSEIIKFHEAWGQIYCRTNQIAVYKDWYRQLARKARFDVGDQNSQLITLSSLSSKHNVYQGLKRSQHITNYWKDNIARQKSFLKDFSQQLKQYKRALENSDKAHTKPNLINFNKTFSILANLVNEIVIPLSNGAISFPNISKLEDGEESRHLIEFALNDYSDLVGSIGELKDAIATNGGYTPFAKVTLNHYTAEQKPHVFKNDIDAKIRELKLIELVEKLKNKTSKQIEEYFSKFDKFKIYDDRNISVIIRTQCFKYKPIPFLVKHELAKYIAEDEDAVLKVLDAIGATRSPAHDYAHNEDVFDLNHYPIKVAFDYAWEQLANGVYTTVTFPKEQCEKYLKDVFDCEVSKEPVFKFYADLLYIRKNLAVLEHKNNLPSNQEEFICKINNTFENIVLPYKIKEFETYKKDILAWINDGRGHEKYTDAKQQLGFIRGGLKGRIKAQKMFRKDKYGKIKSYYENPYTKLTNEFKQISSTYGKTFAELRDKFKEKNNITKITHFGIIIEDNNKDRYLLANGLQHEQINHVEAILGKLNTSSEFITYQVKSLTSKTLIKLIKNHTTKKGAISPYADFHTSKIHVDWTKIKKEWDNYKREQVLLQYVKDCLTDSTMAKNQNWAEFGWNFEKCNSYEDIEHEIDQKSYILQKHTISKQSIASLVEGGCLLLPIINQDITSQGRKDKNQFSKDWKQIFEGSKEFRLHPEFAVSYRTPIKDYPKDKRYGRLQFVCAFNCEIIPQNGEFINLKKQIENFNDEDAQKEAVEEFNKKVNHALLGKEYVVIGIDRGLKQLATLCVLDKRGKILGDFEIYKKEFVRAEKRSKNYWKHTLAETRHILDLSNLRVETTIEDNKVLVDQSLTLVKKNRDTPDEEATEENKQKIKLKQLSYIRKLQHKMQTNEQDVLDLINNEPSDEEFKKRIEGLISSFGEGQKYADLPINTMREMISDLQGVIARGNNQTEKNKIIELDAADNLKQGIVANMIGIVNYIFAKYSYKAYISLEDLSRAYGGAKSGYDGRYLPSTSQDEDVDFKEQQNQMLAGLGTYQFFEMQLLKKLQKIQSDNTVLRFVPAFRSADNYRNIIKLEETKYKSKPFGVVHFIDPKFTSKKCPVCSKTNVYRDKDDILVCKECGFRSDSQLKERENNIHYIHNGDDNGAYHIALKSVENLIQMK

[2] = test system: T2, BEC67 (Artificial (engineered chimeric Cms1-like CRISPR nuclease)); settings: no-spacer negative control; 30 C
T2 sequence: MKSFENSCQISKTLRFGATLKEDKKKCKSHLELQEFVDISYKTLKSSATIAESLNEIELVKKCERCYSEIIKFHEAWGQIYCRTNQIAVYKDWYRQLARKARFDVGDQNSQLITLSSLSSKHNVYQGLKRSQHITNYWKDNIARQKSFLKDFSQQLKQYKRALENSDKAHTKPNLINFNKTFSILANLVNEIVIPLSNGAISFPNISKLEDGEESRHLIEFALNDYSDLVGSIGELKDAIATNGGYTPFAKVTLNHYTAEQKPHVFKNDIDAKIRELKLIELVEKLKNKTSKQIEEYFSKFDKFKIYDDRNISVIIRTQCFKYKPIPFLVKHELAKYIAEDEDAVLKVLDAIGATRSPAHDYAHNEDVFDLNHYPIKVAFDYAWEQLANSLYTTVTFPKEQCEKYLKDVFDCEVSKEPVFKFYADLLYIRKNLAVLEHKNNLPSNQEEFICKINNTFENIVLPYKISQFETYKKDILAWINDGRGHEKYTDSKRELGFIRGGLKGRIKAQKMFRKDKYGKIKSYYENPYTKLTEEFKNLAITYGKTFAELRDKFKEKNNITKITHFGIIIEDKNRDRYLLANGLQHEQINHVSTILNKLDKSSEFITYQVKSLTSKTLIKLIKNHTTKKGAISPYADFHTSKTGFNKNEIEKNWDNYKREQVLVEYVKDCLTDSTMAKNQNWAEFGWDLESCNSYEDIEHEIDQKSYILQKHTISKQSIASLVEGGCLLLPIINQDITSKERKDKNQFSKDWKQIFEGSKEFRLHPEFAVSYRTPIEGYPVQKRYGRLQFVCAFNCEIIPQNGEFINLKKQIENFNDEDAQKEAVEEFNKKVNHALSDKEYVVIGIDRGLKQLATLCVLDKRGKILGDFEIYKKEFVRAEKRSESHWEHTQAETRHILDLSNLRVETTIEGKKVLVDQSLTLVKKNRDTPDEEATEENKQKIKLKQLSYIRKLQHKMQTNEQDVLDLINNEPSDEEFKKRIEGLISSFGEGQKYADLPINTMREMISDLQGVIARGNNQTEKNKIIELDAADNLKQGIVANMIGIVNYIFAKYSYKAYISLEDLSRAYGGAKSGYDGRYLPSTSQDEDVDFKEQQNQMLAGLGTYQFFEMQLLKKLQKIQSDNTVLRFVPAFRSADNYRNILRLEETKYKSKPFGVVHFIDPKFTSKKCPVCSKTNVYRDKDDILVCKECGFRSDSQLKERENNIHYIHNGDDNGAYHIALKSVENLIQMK

[3] = test system: T3, BEC85 (Artificial (engineered chimeric Cms1-like CRISPR nuclease)); settings: no-spacer negative control; 30 C
T3 sequence: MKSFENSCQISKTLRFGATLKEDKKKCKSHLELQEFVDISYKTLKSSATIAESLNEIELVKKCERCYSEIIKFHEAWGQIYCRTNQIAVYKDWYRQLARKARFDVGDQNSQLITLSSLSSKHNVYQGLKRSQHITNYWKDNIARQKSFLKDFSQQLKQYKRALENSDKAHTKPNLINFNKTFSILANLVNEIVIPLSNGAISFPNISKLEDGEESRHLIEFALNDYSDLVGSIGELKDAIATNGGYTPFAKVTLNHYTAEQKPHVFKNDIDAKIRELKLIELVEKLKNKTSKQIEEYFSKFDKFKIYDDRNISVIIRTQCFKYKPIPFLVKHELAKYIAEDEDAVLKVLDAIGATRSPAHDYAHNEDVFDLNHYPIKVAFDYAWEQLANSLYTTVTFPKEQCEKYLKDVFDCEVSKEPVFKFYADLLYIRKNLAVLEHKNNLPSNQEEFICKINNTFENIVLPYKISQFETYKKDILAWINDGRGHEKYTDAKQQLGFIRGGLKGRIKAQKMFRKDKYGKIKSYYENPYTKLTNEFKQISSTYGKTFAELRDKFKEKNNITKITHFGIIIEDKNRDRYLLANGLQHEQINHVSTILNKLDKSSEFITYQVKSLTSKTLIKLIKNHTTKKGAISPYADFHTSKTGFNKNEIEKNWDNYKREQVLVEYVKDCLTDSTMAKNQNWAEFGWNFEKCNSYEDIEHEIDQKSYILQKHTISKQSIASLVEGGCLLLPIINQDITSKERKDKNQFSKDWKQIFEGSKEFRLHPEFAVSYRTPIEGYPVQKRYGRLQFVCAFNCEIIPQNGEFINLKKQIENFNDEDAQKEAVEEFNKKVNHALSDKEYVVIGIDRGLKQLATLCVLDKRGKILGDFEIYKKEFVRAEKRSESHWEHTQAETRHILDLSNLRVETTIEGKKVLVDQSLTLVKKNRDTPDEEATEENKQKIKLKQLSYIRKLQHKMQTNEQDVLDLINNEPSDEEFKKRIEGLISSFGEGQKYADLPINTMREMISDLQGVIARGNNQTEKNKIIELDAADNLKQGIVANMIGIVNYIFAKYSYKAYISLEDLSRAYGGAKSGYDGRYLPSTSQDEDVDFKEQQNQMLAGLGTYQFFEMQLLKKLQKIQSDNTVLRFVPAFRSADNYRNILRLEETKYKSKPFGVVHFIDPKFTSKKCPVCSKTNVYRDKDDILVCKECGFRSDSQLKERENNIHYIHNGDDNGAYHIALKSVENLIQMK

SeqID63 (WO2019/030695) = settings: PAM TTTA
SuCms1 = settings: PAM TTTA

Substance: gRNA cassette without spacer ; Ade2 target
- activity (% editing efficiency) [1]: 0.2
- activity (% editing efficiency) [2]: 0.2
- activity (% editing efficiency) [3]: 0.2

Substance: Ade2 gRNA for Cms1 comparators ; Ade2 target
- activity (% editing efficiency) (SeqID63 (WO2019/030695); S. cerevisiae 21 C): 0.2
- activity (% editing efficiency) (SeqID63 (WO2019/030695); S. cerevisiae 30 C, comparable to negative control): 0.2
- activity (% editing efficiency) (SuCms1; S. cerevisiae 21 C, near negative control): 0.3
- activity (% editing efficiency) (SuCms1; S. cerevisiae 30 C, 3% fully edited): 5

Substance: rpoB gRNA for Cms1 comparators ; rpoB target
- activity (% colony reduction) (SeqID63 (WO2019/030695); E. coli depletion assay 37 C): 0
- activity (% colony reduction) (SuCms1; E. coli depletion assay 37 C): 72
